± gives the uncertainty stated by the source.
Test: self-splicing fitness, log relative to wild type (ln ratio); higher = more splicing; Tetrahymena group I intron in knt gene, E. coli kanamycin selection, DiMSum; sequences stand for … in CUCUCU…GGAGGGAAAAGUUAUCAGGCAUGCACCUGGUAGCUAGUCUUUAAACCAAUAGAUUGCAUCGGUUUAAAAGGCAAGACCGUCAAAUUGCGGGAAAGGGGUCAACAGCCGUUCAGUACCAAGUCUCAGGGGAAACUUUGAGAUGGCCUUGCAAAGGGUAUGGUAAUAAGCUGACGGACAUGGUCCUAACCACGCAGCCAAGUCCUAAGUCAACAGAUCUUCUGUUGAUAUGGAUGCAGUUCACAGACUAAAUGUCGGUCGGGGAAGAUGUAUUCUUCUCAUAAGAUAUAGUCGGACCUCUCCUUAAUGGGAGCUAGCGGAUGAAGUGAUGCAACACUGGAGCCGCUGGGAACUAAUUUGUAUGCGAAAGUAUAUUGAUUAGUUUUGGAGUACUCGUGGUCG
Procedure, shortened: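 Fitness was computed with DiMSum as the error-weighted combination of replicate fold changes, kanamycin versus none, each normalised to wild type. The library randomised all eight intron nucleotides of the P1ex region, with the intron placed in the knt kanamycin-resistance gene on pET-22b(+) in E. coli BL21(DE3). Six replicate transformations were grown overnight at 37°C or 30°C on LB agar with or without 25 μg/mL kanamycin, plus 100 μg/mL carbenicillin, 50 μM IPTG and 0.2% rhamnose. Pooled colonies were amplicon-sequenced on an Illumina HiSeq 2500.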

| Sequence | self-splicing fitness (ln) (30 °C) | self-splicing fitness (ln) (37 °C) |
| --- | --- | --- |
| AAAAAGCAAUAUUACGACAA | -0.322 ± 0.1 | 0.331 ± 0.12 |
| AAAAAGCAAUAUUACGACUU | 0.0987 ± 0.065 | -0.391 ± 0.085 |
| AAAAAGCAAUAUUACGAGGG | -3.5 ± 0.18 | -1.84 ± 0.16 |
| AAAAAGCAAUAUUACGAUUU | 0.149 ± 0.074 | 0.324 ± 0.095 |
| AAAAAGCAAUAUUACGCACU | 0.146 ± 0.079 | 0.322 ± 0.083 |
| AAAAAGCAAUAUUACGCAUC | -2.24 ± 0.13 | -1.34 ± 0.15 |
| AAAAAGCAAUAUUACGCGAU | -2.51 ± 0.16 | -1.07 ± 0.14 |
| AAAAAGCAAUAUUACGCGCG | -0.0286 ± 0.091 | -0.207 ± 0.11 |
| AAAAAGCAAUAUUACGCUAU | -2.04 ± 0.11 | -1.31 ± 0.11 |
| AAAAAGCAAUAUUACGCUUC | -3.38 ± 0.3 |  |
| AAAAAGCAAUAUUACGGAGG | -3.71 ± 0.21 | -2.94 ± 0.2 |
| AAAAAGCAAUAUUACGGAUA | -2.25 ± 0.11 | -1.14 ± 0.097 |
| AAAAAGCAAUAUUACGGCGA | -0.0921 ± 0.08 | 0.25 ± 0.12 |
| AAAAAGCAAUAUUACGGGAC | -1.94 ± 0.098 | -0.477 ± 0.11 |
| AAAAAGCAAUAUUACGGGUG | -1.69 ± 0.062 | -0.982 ± 0.077 |
| AAAAAGCAAUAUUACGGGUU | -1.38 ± 0.075 | -1.37 ± 0.11 |
| AAAAAGCAAUAUUACGUAAC | -2.45 ± 0.13 | -1.12 ± 0.13 |
| AAAAAGCAAUAUUACGUAUA | -2.14 ± 0.14 | -1.5 ± 0.15 |
| AAAAAGCAAUAUUACGUCGG | -1.36 ± 0.082 | -1.39 ± 0.1 |
| AAAAAGCAAUAUUACGUCUA | -0.394 ± 0.053 | 0.068 ± 0.07 |
| AAAAAGCAAUAUUACGUCUU | -0.301 ± 0.043 | 0.361 ± 0.063 |
| AAAAAGCAAUAUUACGUGGU | -3.26 ± 0.11 | -2.74 ± 0.12 |
| AAAAAGCAAUAUUACGUUAG | -3.37 ± 0.17 | -2.61 ± 0.16 |
| AAACAGCAAUAUUACGAAAG | -2.21 ± 0.13 | -1.57 ± 0.18 |
| AAACAGCAAUAUUACGCCAA | -3.08 ± 0.25 | -1.44 ± 0.15 |
| AAACAGCAAUAUUACGCCAU | -3.26 ± 0.17 | -2.42 ± 0.18 |

| Sequence | self-splicing fitness (ln) (30 °C) | self-splicing fitness (ln) (37 °C) |
| --- | --- | --- |
| AAACAGCAAUAUUACGCGAG | -1.6 ± 0.076 | -1.12 ± 0.096 |
| AAACAGCAAUAUUACGCGGA | -2.23 ± 0.11 | -1.02 ± 0.093 |
| AAACAGCAAUAUUACGCUGA | -3.16 ± 0.14 | -1.52 ± 0.11 |
| AAACAGCAAUAUUACGGAAG | -3.7 ± 0.2 | -1.8 ± 0.17 |
| AAACAGCAAUAUUACGGCAU | -0.814 ± 0.066 | -0.78 ± 0.08 |
| AAACAGCAAUAUUACGGCUU | -0.312 ± 0.052 | 0.129 ± 0.07 |
| AAACAGCAAUAUUACGGGAA | -2.41 ± 0.17 | -1.24 ± 0.12 |
| AAACAGCAAUAUUACGGGAC | -3.74 ± 0.25 | -2.35 ± 0.26 |
| AAACAGCAAUAUUACGGGCC | -3.42 ± 0.17 | -2.29 ± 0.16 |
| AAACAGCAAUAUUACGGGUG | -3.09 ± 0.094 | -1.73 ± 0.089 |
| AAACAGCAAUAUUACGGGUU | -2.28 ± 0.09 | -1.8 ± 0.11 |
| AAACAGCAAUAUUACGGUGA | -0.283 ± 0.093 | -0.496 ± 0.12 |
| AAACAGCAAUAUUACGGUGC | -2.97 ± 0.11 | -3.4 ± 0.17 |
| AAACAGCAAUAUUACGGUGG | -2.61 ± 0.096 | -1.93 ± 0.12 |
| AAACAGCAAUAUUACGGUUG | -1.99 ± 0.061 | -0.629 ± 0.075 |
| AAACAGCAAUAUUACGGUUU | -3.64 ± 0.11 | -2.51 ± 0.12 |
| AAACAGCAAUAUUACGUCAG | -3.36 ± 0.12 | -2.41 ± 0.12 |
| AAACAGCAAUAUUACGUGUG | -2.38 ± 0.057 | -1.38 ± 0.07 |
| AAACAGCAAUAUUACGUUGA | -2.58 ± 0.094 | -1.23 ± 0.089 |
| AAACAGCAAUAUUACGUUGG | -3.61 ± 0.1 | -2.43 ± 0.11 |
| AAACAGCAAUAUUACGUUGU | -4.04 ± 0.1 | -2.73 ± 0.1 |
| AAACAGCAAUAUUACGUUUC | -3.8 ± 0.1 | -2.73 ± 0.11 |
| AAAGAGCAAUAUUACGAACC |  | -1.39 ± 0.46 |
| AAAGAGCAAUAUUACGAUAG | -3.88 ± 0.23 | -2.9 ± 0.2 |
| AAAGAGCAAUAUUACGAUCU | -1.42 ± 0.12 | -0.518 ± 0.12 |
| AAAGAGCAAUAUUACGAUGA | -3.01 ± 0.25 | -2.02 ± 0.19 |

| Sequence | self-splicing fitness (ln) (30 °C) | self-splicing fitness (ln) (37 °C) |
| --- | --- | --- |
| AAAGAGCAAUAUUACGCAAU | -3.59 ± 0.21 | -1.65 ± 0.16 |
| AAAGAGCAAUAUUACGCACC | -2.03 ± 0.15 | -0.855 ± 0.17 |
| AAAGAGCAAUAUUACGCAUU | -3.61 ± 0.19 | -1.88 ± 0.21 |
| AAAGAGCAAUAUUACGCUGA | -2.1 ± 0.14 | -2.6 ± 0.26 |
| AAAGAGCAAUAUUACGGCAA | -3.23 ± 0.36 | -1.58 ± 0.19 |
| AAAGAGCAAUAUUACGGGUC | -3.24 ± 0.21 | -3.09 ± 0.37 |
| AAAGAGCAAUAUUACGGUAG | -3.9 ± 0.27 | -2.11 ± 0.18 |
| AAAGAGCAAUAUUACGGUGC | -3.49 ± 0.17 | -1.54 ± 0.15 |
| AAAGAGCAAUAUUACGGUGG | -2.85 ± 0.15 | -2.14 ± 0.25 |
| AAAGAGCAAUAUUACGUAGA | -3.25 ± 0.24 | -1.7 ± 0.2 |
| AAAGAGCAAUAUUACGUGGA | -3.36 ± 0.32 | -2.67 ± 0.26 |
| AAAGAGCAAUAUUACGUGGU | -4.52 ± 0.27 | -3.08 ± 0.18 |
| AAAGAGCAAUAUUACGUGUA | -3.3 ± 0.16 | -2.27 ± 0.22 |
| AAAGAGCAAUAUUACGUGUC | -3.42 ± 0.15 | -2.2 ± 0.12 |
| AAAUAGCAAUAUUACGAGGC | -3.64 ± 0.47 |  |
| AAAUAGCAAUAUUACGCCAG | -2.53 ± 0.24 | -2.09 ± 0.42 |
| AAAUAGCAAUAUUACGCCGU | -1.37 ± 0.21 | 0.028 ± 0.18 |
| AAAUAGCAAUAUUACGCGGA | -1.9 ± 0.12 | -0.348 ± 0.081 |
| AAAUAGCAAUAUUACGCUGG | -1.94 ± 0.13 | -1.15 ± 0.17 |
| AAAUAGCAAUAUUACGCUGU | -3.27 ± 0.14 | -1.89 ± 0.1 |
| AAAUAGCAAUAUUACGGAUU | -0.612 ± 0.074 | -1.1 ± 0.09 |
| AAAUAGCAAUAUUACGGCAU | -0.403 ± 0.093 | -0.183 ± 0.13 |
| AAAUAGCAAUAUUACGGGAC | -3.19 ± 0.29 | -1.57 ± 0.24 |
| AAAUAGCAAUAUUACGGUCC | -1.33 ± 0.12 | -0.378 ± 0.19 |
| AAAUAGCAAUAUUACGGUGG | -3.94 ± 0.21 | -2.68 ± 0.17 |

— the supplement of paper PMC7877785
